The Immune Epitope Database (IEDB)
Each block holds one sequence with its values, some of them ahead of it.

Legend:
Assay in all cases: IEDB peptide-MHC binding, purified MHC/competitive/radioactivity; filed as Kd, often an IC50 or EC50 that approximates it; ≥ and ≤ were set here for values at or beyond the usual limits of such assays
[1] = molecular target: HLA-A*33:01
[2] = molecular target: HLA-A*11:01
[3] = molecular target: HLA-A*03:01
[4] = molecular target: HLA-A*68:01
[5] = molecular target: HLA-A*31:01
[6] = molecular target: HLA-A*02:06; conditions: source organism: Homo sapiens
[7] = source organism: SARS coronavirus Tor2
[8] = source organism: Vaccinia virus WR
[9] = source organism: Lassa virus Josiah
[10] = source organism: Vaccinia virus Copenhagen
[11] = source organism: Lassa virus GA391

Sequence: ALSTNHGHK
Kd [1, 7]: ≥ 46.5 µM | Kd [2, 7]: 619 nM | Kd [3, 7]: 30 nM | Kd [4, 7]: 3050 nM | Kd [5, 7]: 8930 nM

Sequence: VVMAYVGIK
Kd [1, 8]: ≥ 23.2 µM | Kd [2, 8]: 1.24 nM | Kd [3, 8]: 18.6 nM | Kd [4, 8]: 19 nM | Kd [5, 8]: 2460 nM

Sequence: TQNVLYENQK
Kd [1, 7]: ≥ 70 µM | Kd [2, 7]: 523 nM | Kd [3, 7]: ≥ 29200 nM | Kd [4, 7]: 3090 nM | Kd [5, 7]: 13300 nM

Sequence: RLYECLYRNR
Kd [1, 7]: 2.46 µM | Kd [2, 7]: 596 nM | Kd [3, 7]: 6.91 nM | Kd [4, 7]: 229 nM | Kd [5, 7]: 2.08 nM

Sequence: FCNLSDAHK
Kd [1, 9]: 4.33 µM | Kd [2, 9]: ≥ 51000 nM | Kd [3, 9]: ≥ 36200 nM | Kd [4, 9]: 1050 nM | Kd [5, 9]: ≥ 77900 nM

Sequence: IVNAANIHLK
Kd [1, 7]: ≥ 70 µM | Kd [2, 7]: 104 nM | Kd [3, 7]: 51.1 nM | Kd [4, 7]: 66.5 nM | Kd [5, 7]: 2230 nM

Sequence: VVMHINSPFK
Kd [1, 8]: 11.6 µM | Kd [2, 8]: 2.56 nM | Kd [3, 8]: 8.41 nM | Kd [4, 8]: 37.4 nM | Kd [5, 8]: 123 nM

Sequence: SLAIKNYYRK
Kd [1, 10]: 1.18 µM | Kd [2, 10]: 10.6 nM | Kd [3, 10]: 35.3 nM | Kd [4, 10]: 1770 nM | Kd [5, 10]: 297 nM

Kd [6]: ≥ 69.8 µM
Sequence: ELNGKNIEDV

Sequence: NSNIIKNKK
Kd [1, 8]: 4.3 µM | Kd [2, 8]: 1240 nM | Kd [3, 8]: 10200 nM | Kd [4, 8]: 241 nM | Kd [5, 8]: 1250 nM

Sequence: LMSIISTFH
Kd [1, 11]: ≥ 77.7 µM | Kd [2, 11]: 11200 nM | Kd [3, 11]: 2230 nM | Kd [4, 11]: 3160 nM | Kd [5, 11]: 481 nM

Sequence: RIGTAATKR
Kd [1, 8]: ≥ 77.7 µM | Kd [2, 8]: 2420 nM | Kd [3, 8]: 180 nM | Kd [4, 8]: 325 nM | Kd [5, 8]: 17.2 nM

Sequence: KTNCCRFQEK
Kd [1, 7]: ≥ 37.7 µM | Kd [2, 7]: 33.3 nM | Kd [3, 7]: 38.3 nM | Kd [4, 7]: 4220 nM | Kd [5, 7]: 50.5 nM

Sequence: VLSAATETY
Kd [1, 8]: ≥ 77.7 µM | Kd [2, 8]: 6460 nM | Kd [3, 8]: 3010 nM | Kd [4, 8]: 1470 nM | Kd [5, 8]: ≥ 69700 nM

Sequence: YVGIKLGDK
Kd [1, 8]: ≥ 50.6 µM | Kd [2, 8]: 650 nM | Kd [3, 8]: 987 nM | Kd [4, 8]: 2090 nM | Kd [5, 8]: ≥ 24900 nM

Sequence: AMSCDFNGGK
Kd [1, 9]: ≥ 24.2 µM | Kd [2, 9]: 273 nM | Kd [3, 9]: 2000 nM | Kd [4, 9]: ≥ 26700 nM | Kd [5, 9]: ≥ 30000 nM

Sequence: LIPLSEMVVK
Kd [1, 8]: ≥ 24.9 µM | Kd [2, 8]: 55.2 nM | Kd [3, 8]: 766 nM | Kd [4, 8]: 1490 nM | Kd [5, 8]: 7380 nM

Sequence: KALMQLTTK
Kd [1, 8]: 18.6 µM | Kd [2, 8]: 87.9 nM | Kd [3, 8]: 181 nM | Kd [4, 8]: 5800 nM | Kd [5, 8]: 135 nM

Sequence: YILQLIRHGR
Kd [1, 8]: 0.256 µM | Kd [2, 8]: ≥ 27400 nM | Kd [3, 8]: 11200 nM | Kd [4, 8]: 10.3 nM | Kd [5, 8]: 40.2 nM

Sequence: TQMRTPLHK
Kd [1, 8]: ≥ 77.7 µM | Kd [2, 8]: 78 nM | Kd [3, 8]: 1180 nM | Kd [4, 8]: 8960 nM | Kd [5, 8]: 3520 nM

Sequence: GTIAGGVCY
Kd [1, 8]: ≥ 77.7 µM | Kd [2, 8]: 69.7 nM | Kd [3, 8]: 4070 nM | Kd [4, 8]: 7900 nM | Kd [5, 8]: ≥ 62600 nM

Sequence: GQRCHFIKK
Kd [1, 8]: 13.2 µM | Kd [2, 8]: 13.4 nM | Kd [3, 8]: 21.4 nM | Kd [4, 8]: ≥ 25000 nM | Kd [5, 8]: 62 nM

Sequence: NFIPIIYSK
Kd [1, 8]: 0.0256 µM | Kd [2, 8]: 212 nM | Kd [3, 8]: 8660 nM | Kd [4, 8]: 76.9 nM | Kd [5, 8]: 13.9 nM

Sequence: STELIRRVR
Kd [1, 8]: 1.32 µM | Kd [2, 8]: 127 nM | Kd [3, 8]: 13.9 nM | Kd [4, 8]: 57.1 nM | Kd [5, 8]: 91.8 nM

Sequence: DLDKVYEILK
Kd [1, 8]: ≥ 24.3 µM | Kd [2, 8]: 751 nM | Kd [3, 8]: 3350 nM | Kd [4, 8]: 1300 nM | Kd [5, 8]: 12000 nM

Sequence: PFEKEFTSDY
Kd [1, 8]: ≥ 70 µM | Kd [2, 8]: ≥ 69800 nM | Kd [3, 8]: ≥ 70100 nM | Kd [4, 8]: ≥ 70200 nM | Kd [5, 8]: ≥ 70000 nM

Sequence: TSASEIKDR
Kd [1, 8]: 1.34 µM | Kd [2, 8]: 1680 nM | Kd [3, 8]: ≥ 78000 nM | Kd [4, 8]: 9.93 nM | Kd [5, 8]: 18900 nM
